In paper PMC6728052 (PLoS Computational Biology, 2019):
Substitutions are numbered along the chain they refer to. Values belong to the binder of their own block, whether it stands above or below them.

Assays:
[1] = biological target: hen egg-white lysozyme (Gallus gallus, UniProt P00698); experiment: SPR
[2] = biological target: human Vascular-Endothelial Growth Factor (VEGF) (Homo sapiens, UniProt P15692-4); experiment: SPR

Chain of hen egg-white lysozyme (P00698 19-147): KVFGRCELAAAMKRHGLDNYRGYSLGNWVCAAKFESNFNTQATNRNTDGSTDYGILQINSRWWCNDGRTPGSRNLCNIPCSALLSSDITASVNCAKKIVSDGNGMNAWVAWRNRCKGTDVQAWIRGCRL

Kd [1]: 15 nM
koff [1]: 0.00079 s⁻¹
kon [1]: 53000 M⁻¹ s⁻¹
B1: D44.1^des, Fab (Fab, V domains shown)
VH: QVQLQESGAEVMKPGASVKISCKATGYTFSTYWIEWMKQRPGGGLEYIGEILPGSGSTYYNEKFKGKATFTADTSSNTAYMQLSSLTSEDSAVYYCARGDGYYKYWGQGTTLTVSS
VL: DIELTQSPATLSVTPGDSVSLSCRASQSISNNLHWYQQKSHEPPRLLIKYVSQSVSGIPSRFSGSGSGTDFTLSINSVETEDFGMYFCGQSNSWPRTFGGGTKLEIK

kon [2]: 327000 M⁻¹ s⁻¹
B2: G6^des1, Fab (Fab, V domains shown)
VH: EVQLVESGGGLVQPGGSLRLSCAASGFTISDYWIHWVRQAPGKGLEWVAGITPAGGYTHYADSVKGRFTISADTSKNTAYLQMNSLRAEDTAVYFCARFVFFLPYAMDYWGQGTLVTVSS
VL: DIQMTQSPSSLSASVGDRVTITCRASQDVSTAVAWYQQKPGKPPKLLIFSASFLFSGVPSRFSGSGSGTDFTLTISSLQPEDFATYYCLQSYTVTPTFGPGTKVEIK

Kd [2]: 0.06 nM
koff [2]: 3.2e-05 s⁻¹
kon [2]: 530000 M⁻¹ s⁻¹
B3: G6^des13, Fab (Fab, V domains shown)
VH: B2 VH
VL: B2 VL with F49Y, F55Y, V94D, P100Q
